In the assay the target is T1, Full-length human TIP47/perilipin-3 (human), O60664.
T1 chain: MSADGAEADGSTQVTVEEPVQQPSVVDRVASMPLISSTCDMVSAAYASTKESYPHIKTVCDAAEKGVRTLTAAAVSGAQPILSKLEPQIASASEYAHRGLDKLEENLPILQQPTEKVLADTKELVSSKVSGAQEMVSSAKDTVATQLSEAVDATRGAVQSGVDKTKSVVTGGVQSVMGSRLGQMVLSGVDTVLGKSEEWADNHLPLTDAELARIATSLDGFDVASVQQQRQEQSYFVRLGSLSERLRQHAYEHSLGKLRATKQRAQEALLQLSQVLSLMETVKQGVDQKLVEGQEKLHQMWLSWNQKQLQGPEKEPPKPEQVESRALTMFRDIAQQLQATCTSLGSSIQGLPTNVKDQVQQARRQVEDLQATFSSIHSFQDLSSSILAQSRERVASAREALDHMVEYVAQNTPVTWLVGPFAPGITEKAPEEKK
Put plainly: SEC-MALS. The conditions noted are these: remark: other sources report otherwise. (Size exclusion chromatography separates by hydrodynamic size, large species first.)

B1: Full-length human TIP47/perilipin-3, O60664 1-434 (natural protein)
chain: T1 chain
A word on the stoichiometry N: it is the number of molecules, sites or subunits per partner or assembly. On to B1, for which the stoichiometry N is 2.

The values above are taken from paper PMC3393791.
